# Assay results as given in patent US20230141630.
# Like-named read-outs stand apart in the source and are kept apart here.
# How the values were obtained:
# [1] = test system: Group II Intron-RT (unspecified); conditions: 1 h at 55 C, Induro buffer, 1 ug circRNA, 100 ng RT
# [2] = test system: Induro RT (Group II Intron-RT); conditions: 5'-phosphate primer; 50 C 30 min, 10 mM DTT; peak cDNA 7.2 kb
# [3] = test system: Induro RT (Group II Intron-RT); conditions: [none]; 38 C 5 min then 60 C 30 min
sequence,measurement,setting,value
AAAATCCGTTGACCTTAAACGGTCGTGTGGGTTCAAGTCCCTCCACCCCCACGCCGGAAACGCAATAGCCGAAAAACAAAAAACAAAAAAACCCCCCTCTCCCTCCCCCCCTAACGTTACTGGCCGAAGCCGCTTGGAATAAGGCCGGTGTGCGTTTGTCTATATGTTATTTTCCACCATATTGCCGTCTTTTGGCAATGTGAGGGCCCGGAAACCTGGCCCTGTCTTCTTGACGAGCATTCCTAGGGGTCTTTCCCCTCTCGCCAAAGGAATGCAAGGTCTGTTGAATGTCGTAAAAAAACAAAAAACAAAACGGCTATTATGCGTTACCGGCGAGACGCTACGGACTT / TCCAGAGGAACTGCTTCCTTC [circRNA 0.4 kb with DNA primer],activity,[1],4.5 µg cDNA
GGATTCTAAAACGGATTACCAGGGATTTCAGTCGATGTACACGTTCGTCACATCTCATCTACCTCCCGGTTTTAATGAATACGATTTTGTACCAGAGTCCTTTGATCGTGACAAAACAATTGCACTGATAATGAATTCCTCTGGATCTACTGGGTTACCTAAGGGTGTGGCCCTTCCGCATAGAACTGCCTGCGTCAGATTCTCGCATGCCAGAGATCCTATTTTTGGCAATCAAATCATTCCGGATACTGCGATTTTAAGTGTTGTTCCATTCCATCACGGTTTTGGAATGTTTACTACACTCGGATATTTGATATGTGGATTTCGAGTCGTCTTAATGTATAGATTTGAAGAAGAGCTGTTTTTACGATCCCTTCAGGATTACAAAATTCAAAGTGCGTTGCTAGTACCAACCCTATTTTCATTCTTCGCCAAAAGCACTCTGATTGACAAATACGATTTATCTAATTTACACGAAATTGCTTCTGGGGGCGCACCTCTTTCGAAAGAAGTCGGGGAAGCGGTTGCAAAACGCTTCCATCTTCCAGGGATACGACAAGGATATGGGCTCACTGAGACTACATCAGCTATTCTGATTACACCCGAGGGGGATGATAAACCGGGCGCGGTCGGTAAAGTTGTTCCATTTTTTGAAGCGAAGGTTGTGGATCTGGATACCGGGAAAACGCTGGGCGTTAATCAGAGAGGCGAATTATGTGTCAGAGGACCTATGATTATGTCCGGTTATGTAAACAATCCGGAAGCGACCAACGCCTTGATTGACAAGGATGGATGGCTACATTCTGGAGACATAGCTTACTGGGACGAAGACGAACACTTCTTCATAGTTGACCGCTTGAAGTCTTTAATTAAATACAAAGGATATCAGGTGGCCCCCGCTGAATTGGAATCGATATTGTTACAACACCCCAACATCTTCGACGCGGGCGTGGCAGGTCTTCCCGACGATGACGCCGGTGAACTTCCCGCCGCCGTTGTTGTTTTGGAGCACGGAAAGACGATGACGGAAAAAGAGATCGTGGATTACGTCGCCAGTCAAGTAACAACCGCGAAAAAGTTGCGCGGAGGAGTTGTGTTTGTGGACGAAGTACCGAAAGGTCTTACCGGAAAACTCGACGCAAGAAAAATCAGAGAGATCCTCATAAAGGCCAAGAAGGGCGGAAAGTCCAAACTCGAGTAAGGTTAACCTGCAGGGAAAAAACAAAAAACAAAACGGCTATTATGCGTTACCGGCGAGACGCTACGGACTT / ACTTGCCTGTCGCTCTATCTTCTTTGTTTTTTCCCTGCAGGTTAACCTTACTC [circRNA 1.8 kb with RT primer],activity (copies per cDNA),[2],4
UGAGGUAGUAGGUUGUAUAGUUUACUGACCAGGACGACGACA / TGTCGTCGTCCTGGTCAGTA [42 nt circularized small RNA with RT primer],activity (copies per cDNA),[3],> 100
